The Human Domainome abundance scans (Beltran et al. 2025)

B1: Advillin, residues 785 to 819; numbered along this chain, O75366 (parent)
chain: LSEQDFVSVFGITRGQFAALPGWKQLQMKKEKGLF

Variants of: B1
Assay: abundance fitness (aPCA) (normalised: wild type 0, dead -1); higher = more abundant; growth selection in yeast, the domain comes from the species named
Settings: Homo sapiens

Abundance fitness of substitutions, site by site:
I12: T -0.531
K29: Q 0.026 | N -0.09 | S -0.017 | F -0.005 | R -0.023 | C -0.024 | M -0.187 | H -0.099 | W -0.075 | Y -0.221 | A -0.183 | I -0.218 | P -0.497 | T -0.043 | D -0.356 | V 0 | L -0.289 | G -0.266
W23: E 0.081 | S -0.092 | K -0.042 | Y -0.211 | M -0.108 | Q -0.213 | C -0.235 | N -0.319 | P -0.188 | F -0.22 | D 0.005 | R -0.202 | I -0.284 | T -0.228 | L -0.233 | A -0.134 | V -0.11 | H -0.101 | G -0.238
M28: G -1.13 | T -1.03 | S -1.14 | V -1.03 | A -0.905 | H -0.549 | I -0.619 | L -0.47 | R -1.14 | C -0.75 | K -0.708 | P -1.19
K24: N -0.433 | M -0.098 | E -0.142 | D -0.143 | H -0.61 | Y -0.805 | R -0.159 | G -0.488 | I -0.148 | Q -0.072 | V -0.279 | C -0.342 | P -0.475 | F -0.403 | T -0.446 | S -0.304
K32: Q -0.122 | L -0.047 | G -0.156 | I -0.536 | S 0.015 | V -0.103 | W -0.365 | D -0.624 | Y -0.298 | R 0.06 | T -0.179 | E -0.175 | N 0.122 | A 0.017 | F -0.48 | P -0.132 | M 0.072
L26: D -0.01 | H -0.132 | C -0.606 | A 0.034 | Q 0.12 | P -0.914 | F -0.185 | T -0.075 | G -0.146 | I -0.181 | M -0.114 | K 0.068 | Y -0.174 | V 0.073 | S 0.069 | R -0.033
P21: S -0.225 | M -0.64 | R -0.614 | C -0.436 | A -0.414 | E -0.246 | H -0.534 | Q -0.271 | G -0.32 | N -0.51 | L -0.509 | K -0.413 | W -0.617 | I -0.536 | Y -0.668 | F -0.696 | D -0.54
A18: E 0.214 | I -0.1 | N 0.154 | K 0.188 | W -0.358 | G -0.103 | P -0.438 | H -0.362 | Q -0.05 | M -0.3 | R -0.197 | C -0.079 | L -0.062 | S -0.201
R14: F -0.117 | G -0.317 | P -0.116 | D -0.431 | C -0.095 | M -0.024 | A -0.121 | T -0.205 | I -0.252 | K 0.145 | N -0.611 | Q -0.037 | L -0.322 | W -0.349 | H -0.262 | E -0.024 | S -0.169 | V -0.264
G22: P 0.067 | H 0.082 | L -0.074 | N -0.2 | E 0.069 | C -0.44 | Y -0.093 | W -0.405 | Q 0.01 | F -0.138 | M -0.084 | T 0.005 | I -0.162 | V -0.021 | A -0.016 | D -0.104 | S -0.108 | K 0.064 | R -0.099
